Experiment: soluble fraction after stress (log2 fold change); higher = more stays soluble; pooled small domains, quantitative proteomics
Settings: stress: 50 degC
Method in brief: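 Pooled custom libraries of small protein domains were measured in a high-throughput format, with quantitative proteomics as the read-out. Each library was stressed at 50°C. Aggregation propensity is given as the base-two logarithm of the fold change in how much of each protein stays soluble after the stress. Higher values mean a larger share of the protein remains in solution.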

Sequence	soluble fraction (log2)
HMHTPSGALLSAIEKEWGSFDNFKKEFTTAATSLFGSGWVWLAKDKKGKLYILSENNAGNPITKGYTPILG	-0.262
HMHVLNEEYYNRIKAIQFTMNHDDGNSLNDIEKSDIILLGVSRTSKTPTSIYLANRGLRTSNIPLINEK	-0.326
HMHVSLADQAYKTIRTNILNLTYPPGTQLTEAKLASDLNMSRSPVRTAIKMLQADGLLVSDYYKSMTVK	-0.514
HMHVYSYPAAVKIKNAVGREMMVTLLGRSGTHVQFARQDGEEFVYPISSLDLAAQTLISKYPNDGIKN	-0.444
HMIAALEGKQAMVLDQVSLHHGQVKLGGEVWTARPLNDQDVYEPGDRVTVMRIDGATAVVWRN	-0.281
HMIAASPVGGIDRVLELLDARGQRVAWIEASGTEGGQRLRLGWIDAQGAERHGAWVPWSADDLLLYA	-0.387
HMIAASQVLRDARQRSRLTQAELGRRADVPQSVISAYESARREPSVDMLARLVAAAGFDLRIGLTP	-0.541
HMIADPLVINKLMDSMALAINDYNPDSVEPVLDELRQYFSENQLRELSKAMDDFDFDEALNALTLLRT	-0.382
HMIALKNLREEKRMTQAELSKDLEISPSAIGMYEQGRRVPDVSTLKKISAYFNVSIDYLLGNSTSKDI	-0.018
HMIALLRLGTAPDIKAQAPLATILARHNGEMSAKDLWQRFGGEIDTFYAQLKTEVAHGWILEPT	-0.617
HMIAVLKQGVSKQQVENLITWFRSRGLDVHISEGKFQTIIGLIGDTSKVDIDLLNGLEIIESVKRI	-0.0376
HMIAVSQEQIKQIIVDDPSFHDANGKFSQALLTQYLNQRRMSEDQFVEEIRDQFLFQNLQNLVQNG	0.0233
HMIDAAHLEKAILSLPEGARAVFVLIETEGFAHREVAELLGISEGTSKSQLNYAKKRLREILV	-0.311
HMIDAKTTLQELTQKSGKKPEYRLIKIEGPDHLRRFTVEVFIDGQSMGTGTGHSKKEAEQNAANFALKNLQ	0.0235
HMIDEQDLKKYILISTSVEELTDYLGATDRMLYDYLYSLKHVGQYWQLNERFLLDLYKLPNLVIVDKEDLE	-0.136
HMIDFDEQGNLWVHEMGPRHGDELNLIEKARNYGYPTVSQGDHYSGVKISNHEDIPIFKSPEKAWVPAISP	-0.0541
HMIDFDHADIERLWNSIIHYVPERQKLDFAIDFIKSLEDIGVEHDVLRGSAELDPKLEEAVNTVFE	-0.52
HMIDIIEYIISEESKGLRADQGIALQNPQYSRSLIQKWIKKGSVLVNNKIIRTKEILLEGDKISITPEENI	-0.384
HMIDKIRYPELIMKLAHQQGGTIKRRDVEQLLHLQTKQAYRELSKLVDAGELVSVGRGPGAHYEVS	0.042
HMIDQNEDLLSGYIDEVLSQNPDKVNEYLKGKSGLIGFFMGQIKQKSATALDAALLKSQLETALEKLRIK	0.059
HMIDQSVVVQYLSKLTNTPYLKTREITMGEPYMQFERGEIKFQEYVEDIRALLPGGDRIDADRLRDIWMNS	-1.22
HMIDRADLWEALRKLPEDTLKLFSLHFEKGMTHDEISKHTDIPVGTVKTKLRRGLIEARKLAREF	-0.795
HMIDTPQELARLLRLLDEQNFEAEILFHKLRPDLLHLWSKEHVTRIAEALDAFDYQMALTLLNASP	-2.23
HMIDVNLVQRGKTLHLRRRVPMRYSSVERREYVSISLKTDSEAEARRKAGAAWDQMIAAWEARLA	-0.35
HMIDYTDTSAVKDSAAVAGRVREMINEGVPIADVNAFIRSASENGLISDDSARRLRYMNDSR	0.0307

Sequence	soluble fraction (log2)
HMIEDMTINIEERLSLNGDIKKSEYILQYIKPDFIRKVILSPELNKGEIYIYDSKKKVMYLPLFDQVSEEI	-0.463
HMIEINNLEDLKLMKEFILKNGKYGFGVFVGGKYIGLSDIGSVNSFKDTLGLPVVSLGNDDFKRFTEAH	-0.658
HMIEQEQAFLEQVLKKYSQEELVLTVGSRTLVKYSAGQLERLLEHYPHVRLASSPVNGEAGFLLSRG	-0.0933
HMIEQIELEARVPDELGGQRLDQVAAQMFDDFSRSRLTGWIRDGSLTADGQQLRPRDIVYGGTLLQLKAEQ	0.00374
HMIESFQNGLVEHDQFTRPNPWVTPNFSKIEVPSILLSGKHADIDLWKHQNSIENTKKNRPDLFKNYLKKN	0.211
HMIEYILDYLANRGVYAASQGEQQQMEDGIARYLQENGLEDGNTGAYYQKYVSNHLQQISASDLKAYFLN	-0.529
HMIEYYDDEELDVFKGRQSDNYTNKEIEQFAEVLHTMRQDEVKGWNRSLILRSINLPDSLKDEVIMLI	-0.672
HMIFDPTTLPEKQLLVYGIISSHPGLNAKQISEMLTLKKSSIETAIKGLRKKEIIEYEGTTRNGG	-0.182
HMIFEEDILKEFRGSLIFITHDRRFLDNIATRIIELDRGKLLSFPGNFSAYKKAKNEQLANEAVENA	-0.446
HMIFEETVFKDIAFGPKNMGLSEAEIKRRVYETAENIGLSQELMERSPFELSGGQKRRVAIAGVMAMEP	0.192
HMIFELDSDRASAGNTIGKLVSKWNNTEVASVQFVSGDDTSNKDNASIYLNTRSGGSGNLVRLRITK	0.168
HMIFRPALITDLDAVERHYTELLTREAETGRSSTNWSLGVYPTRQTATAAQAAGTLWVLEREGQVVASVI	-0.245
HMIFTPNGDRVNDVFEIEMGVKLEFQIIILNQQNQTVFKSADPDFKWDGTMLNGEPAPSGTYLYYFSAKD	0.0847
HMIGERIKRARAAAGLSMQALGKQVGISANMVKKYEHDQSMPSSGVLLKLATALSVRTEYFFRPA	-1.28
HMIGGASVFKQFLPLADKMLLTLIHSEFEGDTYFPVFSEKEWLLQESSSLLSATGYQLSFQTYIR	0.0328
HMIGGEDEILKVVLEVLEEKPEAIEQYKNGRTNIVDFLVGQVMKKTRGQANPATTREFMIREIEK	0.0588
HMIGKDLLGYEVFSESGDLVGILKDVMWLPHSDVYVITNGGKELLIPVIPEVVKGINHEQGVIVISPM	0.0196
HMIGPYAAAKLMTNKDFVKWLSGGVEKSVFNPNSFGQHIRRLVQISEVNPDIRDEINAVVQGLTQ	-0.361
HMIGRIKGQLIEKKSDSVVIDVHGIGYVVYVTEKTARSLTLGDQSRDISLYSELLVKEDLLQLVGFI	0.0137
HMIGRRLKVARASAGLSLRELAARMDGVVTPQAIGKYERNEDMPGSRALMALASALGVSEGYLLSD	-0.831
HMIHDSAESVVFPFGKYKGYTLAHVIREHPHYTYWIRDNADFSPLWREAVSLALQNRDIGHLNLPHVK	-0.416
HMIHMNMGQKINQLRLQKGFTLEELGNLVGVGKSTVRKWENGMIANMKRDKILLVAEALDTSPAYLMGWD	-1.54
HMIIENIVVEIKGEVYNPGLYILEQGSRINDLIELSGGFTKDANGTDLNLAKVLSDGEVIIVSKKG	-0.2
HMIIIMKPNASEEAVRKVTHIIESKGLQVHLSKGSQVTIVGVVGDKTRLQGSNIEISEGVDKVVAVT	-0.0139
HMIILDASASRAIGNGTIEETKWDFGNGESSTNRGGPIVERQIYANQAAYILKLSMKTNDGQLFTKEIQLL	-0.0666

Sequence	soluble fraction (log2)
HMIINKFERRKEIQIQFNNQERIKFKDFFLNLSKENIIVSFLILLELVRESLIDFSGTNENDIEFFIK	-2.3
HMIITTPYKVTASAINIRSGRGTSYSIIGTVSKGQTVDVYNNSLSKGWVKVKFSGSVGYAYAKYLEK	-0.299
HMIIVMSANANAREISEVIARIRAMGYDVHLSHGKERTIIGVIGRGTPIDREQLSLMSGVQQVMPV	-1.03
HMIKIEDILNVESVELSDSEYKKFLNGILINVKNLENGWAKVYSGNEFKGFGIVDKNLLKRKIVID	-0.426
HMIKIEDYTNKDYNKVEASLEVKGLVVNIEYKAVDDKAKYKGKEDLIIDQSVKKDATLVKGDTIILYLPK	-0.268
HMIKISDYLSEEDLNFIKEMEKIYPYFDFDSEGNLILTKSIDELKDKYGFDEAFVSRLDTVLNSR	0.0178
HMIKITLGWVISVRRHDLGYTQHKMARAVGISDLTVSRIESDDGITPDNNTLRKIAEYLKIDYNSLLTLK	-1.73
HMIKLIKKDTNISELKMSKMPWDVMLYGKPYQVVSIKGYVHTIGGRRGENDLWMYPRDESPTYENLIEFQ	-2.61
HMIKNKDRIQYTLAHRKAFRKIEKELLGYNTFRSLFHDLDKVFLYPFFDYKKVHNFHRNHAHH	0.199
HMIKRETNDNPVDPASLSLGDRVKILTLNQNGEIISLPDEKGLLQVQVGIMKIGVNVSDIMLI	-0.0513
HMIKRITDEQHPVDVDRLLVVTFTNAAASEMRERIGDAIEAALEKDPYNQHLQRQLTLVHNAQITTIDS	-0.0115
HMIKSEERIQNIKEYILEFQFTYHRTPTMAQIAEAVGTVKSNVYKYLSEMEERGILTRNKREIEINDTIQ	-0.819
HMIKSMTGYGSAKGTVEGIEVSVELKSVNNKFLDTSIRLPRSFLFAEETIKQAVSSHISRGKVDVFVSVDS	≥ 0.62
HMIKYTIEELGELTGFTRRTIRYYVQEGLIDPPAGRGRGGFYYDSHVQQLLRIKSFQEKGIGITAMVSLM	-2.51
HMILEEIIGKNIARYREAAGLTQATLAEKIGISTAFVSRVERGQKKMKVETLYATAKVLNVSVDALLS	-2.1
HMILKNVPSNLVNQRLDKVATVLFQTYSRTQIKKWILEGRLLVNGEISNPKDLVNENDEIEINPI	-1.6
HMILKQTHIVQELTGPIRLQEYGVGIFQQISTKSALKKALKKNQITVDGVVGSTATFIKGGEIIIYHVTE	-2.75
HMILNDRSELLDVVKRVIAANPASVADYRKGKKKVLGFLVGQAMKETKGQADPRILNELFLQELGEN	0.0223
HMILNNAKINTELNSLAEFTQRSLDSNTSEIGFYDYKKISYIASFATMKTTNWNVIIRAPINEFMGTVN	0.101
HMILQTLSERVTETLRDWILHGHFKPGDKIEEVPIAERMGVSRTPVRAAFATLTNEGLIDHQPNRGYQVRV	-0.325
HMILSTNFFRHIVPKEYQTSYGTMKKWLTDHNVIGTNSIPQGIGYRIPTQGLSSTFSFKVVDVLPDR	-0.525
HMIMDQTILRKQRELTDRLNRYRNEYYNHNKPSVSDEVYDRLFDELQSLEKETGVQMANSPTTTVG	-0.0145
HMIMGTITKRTNPSGAIVYRAQIRIKKAGYPDFSESRTFSKKAMAVEWLKLREAELEMHPELLFR	-1.34
HMIMHLNQIIRNKRLAAGLTQEALAQKVGVTAPAVSKWEKGISYPDITLLPILARNLNTDVNTLLDFSA	-0.641
HMIMNLNVLANNVRRLRTAQRLSQSALASKAGLSVPAIKNLENARNEPRVNTVQVIAHALEVRLQDLFAPT	-1.62

From the domain aggregation screens of Martell et al. (2025)
